This is an account of results in the supplement of paper PMC12042874.

± gives the uncertainty stated by the source.

This data set is described as follows: amyloid nucleation score (Sup35N fusion, yeast selection) (log enrichment); library NNK1; higher = more nucleation; inactive = no reads after selection. The essentials:
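The nucleation score equals the log enrichment of output over input reads from DiMSum, centred on the mode score of non-aggregating sequences. It was computed only for sequences with 100 or more input reads. The reads came from Illumina sequencing of plasmid inserts from psi-negative yeast expressing Sup35N fused to peptides of 20 random codons, induced with 100 μM copper sulfate for 24 hours and grown 7 days at 30°C without adenine and uracil.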
Consider WMKVLVPFRMEAASGSLFCS, for which the amyloid nucleation score was -1.22 ± 1.3.
In the case of QKIDNSIGQFYRKI, the amyloid nucleation score is -1.15 ± 0.59.
As for FQGRLVFVDCDIRLVALKGS, the figure is 3.88 ± 0.067.
The value for GRCVNVSCHIRRPQVGTPRA was 1.07 ± 0.8; that for CIFHL was 0.303 ± 0.65; that for FRHGKVWSLLKLGADAGREE was 0.098 ± 0.91.
The value for RYSFLANGASSFGCVVLFSL was 0.503 ± 0.93; that for WLGLGVRALRSENVCCRAFH was 1.1 ± 0.49.
FGRVRCLESEICSCGFFVDE returned an amyloid nucleation score of 3.03 ± 0.15.
SFSIN came in with an amyloid nucleation score of 0.238 ± 0.29.
As for NVLWIPSSGISSVRLEGIAM, the figure is 0.393 ± 0.46.
The value for YGETGVINWRV was -0.217 ± 0.44; that for IVWYELIESNVLKSKGCVVN was -0.322 ± 1.1; that for MSEENSTNIIYSIVPKSL was “inactive”.
With VCIVPIVYPLFKFSVSNDPT, the amyloid nucleation score is -0.202 ± 0.57.
As for PGRSSRLR, the figure is -0.071 ± 1.1; as for AMRLMDILCLIVCPHEYMWP, 1.54 ± 0.17.
For TFNVVNPMVTYN, the amyloid nucleation score was -0.776 ± 0.3.
For LFSWICEN, the amyloid nucleation score turned out to be 0.142 ± 0.28.
With DPARGWPQNVNLFLLSNRR, the amyloid nucleation score was determined as 1.01 ± 0.63.
As for TCVIFLVLCQALSFPVLALC, the figure is 0.095 ± 0.79; as for GGGSMAGAERPGGLGQVRCN, 1.2 ± 0.6.
Take RMLFSYPCESISSHLILCEV: the amyloid nucleation score is -0.181 ± 0.5.
The value for KFRDPYCKHRWAGLGKQSGD was 0.052 ± 0.4; that for SKWLIRGCL was 1.6 ± 0.21.
STHNTRFGVY had an amyloid nucleation score of 0.167 ± 0.24.
In the case of FNFMVNRLMVKVGLVSWRQY, the amyloid nucleation score worked out at 0.029 ± 1.6.
Consider LSGGWEVPQVVAERKARPWI, for which the amyloid nucleation score is -0.037 ± 1.7.
The value for TVMFCRQWVFNCVFFIDIVK was 1.31 ± 0.1.
As for VGIPRYGYEPVVHALVKPFE, the figure is 0.959 ± 0.79.
As for EGACVKSRVWDRINVTGRSR, the figure is 1.25 ± 0.68.
For SYPKGGLPCGWIRTPPWRFH, the amyloid nucleation score came out at 0.42 ± 0.59.
Regarding FRFAMRYFRGIYELRNENRR, the amyloid nucleation score result was “inactive”.
As for EMSIILGIERRNHCVPAMVS, the figure is -0.552 ± 1.9; as for ESVDGTSHAVGIMNGRLKID, 1.93 ± 0.1; as for DINWYTLDAHV, -1.86 ± 1.9.
As for ACDVNSCVHCMSTVKFFPRP, the figure is 4.2 ± 0.11; as for ATGARLKLCQELRSTLGMLT, -0.608 ± 0.45.
As for LGWIDSYTYHWDTIHRKQFR, the figure is 0.878 ± 0.33; as for FFRIACL, -0.704 ± 0.45.
Substance GSFVGRR gave an amyloid nucleation score of 0.241 ± 0.46.
The value for RGELAVRKPG was 0.402 ± 0.28; that for EAIIEWWFHDSLASHSCTEV was 0.58 ± 1.2; that for LLNFCIWAKCWYRLVCNC was 0.209 ± 0.93.
As for DVGGCHVVTGFERNVKGDLL, the figure is 1.44 ± 0.78; as for KLVLYEVFSSKKKHIFLSHQ, 0.586 ± 0.26.
The value for SNVHCPWKL was -1.74 ± 2.7; that for PFHGFGR was -1.04 ± 0.53.
With EVFDDCGGLMNYM, the amyloid nucleation score result was “inactive”.
The substance FWNFRVIC yielded an amyloid nucleation score of 0.259 ± 1.4.
As for LMCWFAGEDPVFVYTVFIVT, the figure is -1.49 ± 1.4.
As for RWPDQCLLMLWMVLLFPSWE, the figure is -0.552 ± 0.28; as for IVVNIYVRWYPVGTGWDYLT, “inactive”; as for CVSLCVHKDMIVIAPGTLTQ, 4.81 ± 0.064.
As for RCIVWC, the figure is 0.207 ± 0.56.
With FIHALLSNYVSIIFSNDRIC, the amyloid nucleation score came to 2.31 ± 0.59.
On to LPPTLVLMIHNRRVCRCSLA, for which the amyloid nucleation score was 1.05 ± 0.69.
The value for FWLIHGMIQMGYVK was -0.458 ± 1.2; that for IRRYLSCPYNISIVYSENIV was -0.185 ± 0.71; that for SEQSMTY was “inactive”.
IWVHHRSVTKSWLKMVAWNH: the amyloid nucleation score was -0.514 ± 0.43.
The value for ASGFESCDTEVVGFRGVCYA was 1.42 ± 0.51; that for IRRSHSEVPVVA was 0.22 ± 0.37.
The value for DWPFQYDVKSRLVILLWFVR was 0.086 ± 1.4; that for MLGSYLHVDSGNCTKVLRTV was 0.326 ± 0.41.
As for RGLGWHHRLSCYRSAGFARA, the figure is -0.719 ± 2.1; as for EFDTQSCQVDTVAVYIEPSL, 0.793 ± 0.65.
Substance VVIVGAGIPWILGESAVFRC gave an amyloid nucleation score of 0.218 ± 0.36.
As for HYLCPVACRGRFVVSQPVNI, the figure is -1.14 ± 1.5.
As to VSNTSLYPDKESMLRGTEWE, the amyloid nucleation score was determined as 0.674 ± 0.77.
On to SRPQLDKTLFGLVA, for which the amyloid nucleation score was determined as 0.771 ± 0.62.
The value for IILYVLANFIMWWREVFNPK was 0.218 ± 0.48; that for WTYWGSCGGLWSKIFIYFLL was 3.66 ± 0.078.
HYHFDTACVWCDYSVHGNKD displayed an amyloid nucleation score of 7.38 ± 0.057.
The substance GIDTKDFFVAGMLGCVEGMD yielded an amyloid nucleation score of 0.245 ± 0.7.
As for PQVGRAYNGGAGFLKYSTWD, the figure is 0.229 ± 0.51; as for WGVALRDAATAVDVGLVVRF, 0.37 ± 0.62.
As for FYSMSGWYSTVKGVCIRTLT, the figure is 1.02 ± 0.35; as for FLSRGSVWVVGSTFECHYEW, 0.205 ± 0.56.
As for TGCGERWGQSMVIGVSL, the figure is -0.102 ± 0.62; as for HIKVHKFVGENWETFSRADM, -0.026 ± 1.7.
Consider YKFYVTTLGFYDWCPFPVER, for which the amyloid nucleation score was 0.831 ± 0.42.
In turn, YFSVYSRHRSIWTCGIVYSK gave an amyloid nucleation score of 0.078 ± 0.49.
The value for GIVSAESWSLLQDRHFGAVK was 0.578 ± 0.55; that for WFWELGN was 0.201 ± 0.28.
The value for CFNVSVSGEDSFLFGYGWHI was 0.159 ± 0.66.
The value for VGRNQNKTDEG was 0.564 ± 0.95.
Consider FQSARR, for which the amyloid nucleation score is 0.575 ± 0.36.
As for MLLIRNFQFTTLFVCHFSAE, the figure is -0.038 ± 0.16; as for WKFLFVVFIYSNYVVGLLDN, -0.915 ± 0.67.
As for FYFLKDY, the figure is -0.763 ± 0.3; as for LSSSWLNKKLH, -0.647 ± 0.9.
The value for HSKGYMARHDRAYGDSERVV was 0.303 ± 0.77; that for VWLRNTKEMCFV was 1.64 ± 0.11.
In turn, GSIQDVIRLAIDVGRAALTE yielded an amyloid nucleation score of 0.684 ± 0.55.
As for NYTVRENGSK, the figure is -0.127 ± 0.27; as for LLFKNRISPITTI, 0.174 ± 0.47.
With VSCMRDIIRLCYQQTPICKF, the amyloid nucleation score was -0.272 ± 0.84.
As for FAVINSPNKAGNRITRLGTY, the figure is 0.681 ± 0.47.
As for GLVHMPGHLRVLRQLLSA, the figure is 0.377 ± 0.56.
As for HMRYWLLQYGVILAQG, the figure is 0.71 ± 0.42; as for LMAHSGSAP, 3.3 ± 0.19; as for WEPTR, 0.174 ± 0.59.
GNYNSPFFRGSVNWNWCM had an amyloid nucleation score of 0.485 ± 1.2.
Regarding ACHRTWKWVLRLRLLMRNNL, the amyloid nucleation score is -0.712 ± 0.8.
The value for SKFVT was 1.2 ± 0.9; that for IWMIAQDGFNFQLSNR was 0.282 ± 0.31; that for YYFILYGSVNQHRTSIFRAR was 5.08 ± 0.059.
As for IFYFELPKFCKIKDISSKWV, the entry is “inactive”; as for VMCQCYSGGM, 1.31 ± 0.4; as for ERPTWVGGDGSSGLVVGSDL, -0.22 ± 0.81.
On to QVNLANFGRRKCKRKGR, for which the amyloid nucleation score was determined as 0.185 ± 0.44.
As for LTKRVGFDEMSLPHQDASSV, the amyloid nucleation score is -0.289 ± 0.36.
As for FATMGSKKCSGARHSKRGSC, the figure is -0.26 ± 0.34; as for SYICLHYFCIQ, 5.745 ± 0.055; as for VRRCFFVYSVR, -0.979 ± 1.2.
As for FLYVNLL, the figure is 0.091 ± 0.19; as for TCDFAAWICFYISLWVRVKI, -0.382 ± 0.61; as for EYGVGDKVIWDDMI, -0.151 ± 0.27.
The value for YSIVFGWLRYRLDWMCLISL was 0.055 ± 0.26; that for AERVCTFIL was -1.25 ± 1.1.
SWTTARLNRSRSIFKNLRQE: the amyloid nucleation score stood at 0.028 ± 0.46.
As for FRWPSLLGNLLKLGVDTAD, the figure is -0.126 ± 0.38; as for VEGLERLLVLWHWPFAWNYF, -0.735 ± 1.4.
The value for KHVGWSYG was 0.779 ± 0.48; that for FPQLGLG was “inactive”.
The value for RMVTTIIERVSIVCMKPSYR was 1.35 ± 0.88.
For VHYWLVNSSTKRGRPFASAF, the amyloid nucleation score is -0.231 ± 0.36.
On to SLLPDPHYMTQVW, for which the amyloid nucleation score is -0.559 ± 0.55.
The value for KSVLQFETMGFVDLYFSFNL was 5.49 ± 0.091; that for NILMFEMVVRSFIGLTEKFL was 0.69 ± 1; that for QFMIICHMMVNNW was 7.003 ± 0.044.
The value for EKYDGCIFEEKQMIAGAHGM was 1.15 ± 0.88.
Consider LKLCKVRMQTLLNDVGTSCP, for which the amyloid nucleation score is 0.025 ± 0.4.
As for MCCCLDDEGDHLNWFKRLRC, the figure is 1.52 ± 0.49; as for TMSASLNYLTLVMN, 0.129 ± 0.59.
The value for MVNILIK was 0.462 ± 0.49; that for GKNFYREDAVSVCRWL was 0.342 ± 0.64; that for YCANQRNSVPMGRMEPHSSS was -0.2 ± 0.49.
As for NACGQVLCWYL, the figure is 8.816 ± 0.058; as for HLSLPNVPVALWKRSRPVTM, 1.26 ± 0.85.
